The chains are these.
B1: Paip2A(25-83) (residues 25-83 of PABP-interacting protein 2A) (domain or fragment, human, UniProt Q9BPZ3 25-83, looked up)
chain: HEDDNPFAEYMWMENEEEFNRQIEEELWEEEFIERCFQEMLEEEEEHEWFIPARDLPQT
B2: PABPC1 RRM2 including the RRM2-3 linker (residues 100-190) (domain or fragment)
chain: not shown
B3: PABPC1 RRM3 including the RRM3-4 linker (residues 191-289) (domain or fragment, human, UniProt P11940 191-289, looked up)
chain: TNVYIKNFGEDMDDERLKDLFGKFGPALSVKVMTDESGKSKGFGFVSFERHEDAQKAVDEMNGKELNGKQIYVGRAQKKVERQTELKRKFEQMKQDRIT
B4: PABPC1 RRM2/3 (residues 100-289) (domain or fragment, human)
chain: GPLGSNIFIKNLDKSIDNKALYDTFSAFGNILSCKVVCDENGSKGYGFVHFETQEAAERAIEKMNGMLLNDRKVFVGRFKSRKEREAELGARAKEFTNVYIKNFGEDMDDERLKDLFGKFGPALSVKVMTDESGKSKGFGFVSFERHEDAQKAVDEMNGKELNGKQIYVGRAQKKVERQTELKRKFEQMKQDRIT
B5: PABP-interacting protein 2A (Paip2A), full length (natural protein, human, UniProt Q9BPZ3 1-127, looked up)
chain: MKDPSRSSTSPSIINEDVIINGHSHEDDNPFAEYMWMENEEEFNRQIEEELWEEEFIERCFQEMLEEEEEHEWFIPARDLPQTMDQIQDQFNDLVISDGSSLEDLVVKSNLNPNAKEFVPGVKYGNI

Assay [1] addresses B3. The assay can be described thus: ITC. (In ITC the heat of successive injections is recorded.)
Assay [2] deals with B4. The assay can be described thus: ITC.
Assay [3] has as its target B2. The experiment in a line: ITC.
The target of assay [4] is B1. The assay can be described thus: ITC.
The target in assay [5] is poly(A)-binding protein C1 (PABPC1), full length (human, UniProt P11940 1-636). The experiment in a line: SPR. (In general: In SPR one partner is held on a chip, and binding of the other changes the refractive index at the surface.)
Assay [6] addresses PABPC1 RRM1/2/3/4 (residues 1-370) (human, UniProt P11940 1-370). The assay can be described thus: SPR.
Assay [7] addresses B4. The experiment in a line: NMR titration.

One may read the Kd as the free concentration of one partner at which half of the binding sites on the other are occupied at equilibrium, for simple one-to-one binding. The low end stands for a tighter complex, the high end for a looser complex. Usually stoichiometry N stands for a count of units in the complex or per binding partner.

In the case of B1, the figures for the dissociation constant Kd in assay [1], in assay [2] and in assay [3] were 1300 nM, 1.9 nM and 4000 nM, respectively.
On to B2, for which, in assay [4], the dH is -28.7 kcal/mol and the “stoichiometry N” value was determined as 0.87.
B3: in assay [4], the dH was -43 kcal/mol and the “stoichiometry N” value amounted to 0.87.
For the molecule B4, in assay [4], the dH is -55 kcal/mol and the “stoichiometry N” value was 0.83.
Regarding B5, the binding result in assay [5], in assay [6] and in assay [7] was “binds” throughout.

Source of the values: PMC9019252 (The Journal of Biological Chemistry, 2022).
